Laboratory results from publication doi:10.1101/2020.09.16.300517.
Where “and” joins values, the source holds several entries; their conditions need not be identical. Equal entries are not always repeated.

What was measured:
[1] = biological target: phalloidin-stabilized pyrene-labeled F-actin (rabbit) (UniProt P68135); assay: other fluorescence titration
[2] = biological target: bovine cardiac ventricular β-myosin subfragment 1 (α-chymotryptic S1) (bovine); assay: stopped-flow fluorescence kinetics

PFA fluorescence restored by MgATP, with Mava [1]	PFA fluorescence restored by MgATP, with OM [1]	decrease in pyrene fluorescence intensity at S1:actin 0.7:1 [1]	stoichiometry N [1]	Kd [2]	Substance
84%	65%	46%	1 S1 per actin	–	bovine cardiac ventricular β-myosin subfragment 1 (α-chymotryptic S1) (domain or fragment)
–	–	–	–	48 nM and 57 nM	phalloidin-stabilized pyrene-labeled F-actin (from UniProt P68135 1-377) (natural protein)
